Results from patent US20110118447A1.
Numbering of substitutions follows the chain as printed. Numbers in names are those of the source. One block for each binder: values may come before it.

Molecular target: binding partner of C5A (XPA23)
Test: Biacore K-off

B1: C5A (XPA23) VL N30Y (antibody, V domains shown)
VH: EVQLLESGGGLVQPGGSLRLSCAASGFTFSKYFMFWVRQAPGKGLEWVSVISPSGGMTRYADSVKGRFTISRDNSKNTLYLQMNSLRAEDTAVYYCARVGYGGNSDYWGQGTLVTVSS
VL: DIQMTQSPSSVSASVGDRLTIICRASQDIYRWLAWYQQTPGNAPKLLIHSATSLQSGVPSRFSGSGSGTDFTLTINSLQPEDFATYYCQQADSFPLTFGGGTKVEIK
fold difference in affinity vs original: 1.4 fold

B3: C5A (XPA23) VL S50Q (antibody, V domains shown)
VH: B1 VH
VL: B1 VL with Y30N, S50Q
fold difference in affinity vs original: 0.21 fold

B4: C5A (XPA23) VL H49K (antibody, V domains shown)
VH: B1 VH
VL: B1 VL with Y30N, H49K
fold difference in affinity vs original: 0.1 fold

B5: C5A (XPA23) VL H49R (antibody, V domains shown)
VH: B1 VH
VL: B1 VL with Y30N, H49R
fold difference in affinity vs original: 0.21 fold

B7: C5A (XPA23) VL S53K (antibody, V domains shown)
VH: B1 VH
VL: B1 VL with Y30N, S53K
fold difference in affinity vs original: 4.07 fold

B8: C5A (XPA23) VL A51Q (antibody, V domains shown)
VH: B1 VH
VL: B1 VL with Y30N, A51Q
fold difference in affinity vs original: 0.24 fold

B9: C5A (XPA23) VL H49D (antibody, V domains shown)
VH: B1 VH
VL: B1 VL with Y30N, H49D
fold difference in affinity vs original: 0.11 fold

B10: C5A (XPA23) VL R31N (antibody, V domains shown)
VH: B1 VH
VL: B1 VL with Y30N, R31N
fold difference in affinity vs original: 0.38 fold

B11: C5A (XPA23) VL R31S (antibody, V domains shown)
VH: B1 VH
VL: B1 VL with Y30N, R31S
fold difference in affinity vs original: 0.44 fold

B12: C5A (XPA23) VL H49Y (antibody, V domains shown)
VH: B1 VH
VL: B1 VL with Y30N, H49Y
fold difference in affinity vs original: 0.52 fold

B14: C5A (XPA23) VL H49N (antibody, V domains shown)
VH: B1 VH
VL: B1 VL with Y30N, H49N
fold difference in affinity vs original: 0.31 fold

B16: C5A (XPA23) VL A51N (antibody, V domains shown)
VH: B1 VH
VL: B1 VL with Y30N, A51N
fold difference in affinity vs original: 0.3 fold

B17: C5A (XPA23) VL A51D (antibody, V domains shown)
VH: B1 VH
VL: B1 VL with Y30N, A51D
fold difference in affinity vs original: 0.13 fold

B19: C5A (XPA23) VL R31K (antibody, V domains shown)
VH: B1 VH
VL: B1 VL with Y30N, R31K
fold difference in affinity vs original: 1.18 fold

B20: C5A (XPA23) VL S53E (antibody, V domains shown)
VH: B1 VH
VL: B1 VL with Y30N, S53E
fold difference in affinity vs original: 1.13 fold

B22: C5A (XPA23) VL A51T (antibody, V domains shown)
VH: B1 VH
VL: B1 VL with Y30N, A51T
fold difference in affinity vs original: 0.76 fold

B24: C5A (XPA23) VL R31D (antibody, V domains shown)
VH: B1 VH
VL: B1 VL with Y30N, R31D
fold difference in affinity vs original: 11.1 fold

B26: C5A (XPA23) VL A91D (antibody, V domains shown)
VH: B1 VH
VL: B1 VL with Y30N, A91D
fold difference in affinity vs original: 1.08 fold

B27: C5A (XPA23) VL A51S (antibody, V domains shown)
VH: B1 VH
VL: B1 VL with Y30N, A51S
fold difference in affinity vs original: 0.95 fold

B28: C5A (XPA23) VL A51R (antibody, V domains shown)
VH: B1 VH
VL: B1 VL with Y30N, A51R
fold difference in affinity vs original: 0.18 fold

B29: C5A (XPA23) VL S50E (antibody, V domains shown)
VH: B1 VH
VL: B1 VL with Y30N, S50E
fold difference in affinity vs original: 0.02 fold

B30: C5A (XPA23) VL A51Y (antibody, V domains shown)
VH: B1 VH
VL: B1 VL with Y30N, A51Y
fold difference in affinity vs original: 0.45 fold

B32: C5A (XPA23) VL A51E (antibody, V domains shown)
VH: B1 VH
VL: B1 VL with Y30N, A51E
fold difference in affinity vs original: 0.29 fold

B34: C5A (XPA23) VL A51H (antibody, V domains shown)
VH: B1 VH
VL: B1 VL with Y30N, A51H
fold difference in affinity vs original: 0.61 fold

B35: C5A (XPA23) VL S50H (antibody, V domains shown)
VH: B1 VH
VL: B1 VL with Y30N, S50H
fold difference in affinity vs original: 0.05 fold

B37: C5A (XPA23) VL S50Y (antibody, V domains shown)
VH: B1 VH
VL: B1 VL with Y30N, S50Y
fold difference in affinity vs original: 0.05 fold

B38: C5A (XPA23) VL R31T (antibody, V domains shown)
VH: B1 VH
VL: B1 VL with Y30N, R31T
fold difference in affinity vs original: 0.24 fold

B39: C5A (XPA23) VL S50K (antibody, V domains shown)
VH: B1 VH
VL: B1 VL with Y30N, S50K
fold difference in affinity vs original: 0.1 fold

B41: C5A (XPA23) VL S50T (antibody, V domains shown)
VH: B1 VH
VL: B1 VL with Y30N, S50T
fold difference in affinity vs original: 0.87 fold

B42: C5A (XPA23) VL R31Q (antibody, V domains shown)
VH: B1 VH
VL: B1 VL with Y30N, R31Q
fold difference in affinity vs original: 0.27 fold

B43: C5A (XPA23) VL H49S (antibody, V domains shown)
VH: B1 VH
VL: B1 VL with Y30N, H49S
fold difference in affinity vs original: 0.14 fold

B45: C5A (XPA23) VL S50N (antibody, V domains shown)
VH: B1 VH
VL: B1 VL with Y30N, S50N
fold difference in affinity vs original: 0.25 fold

The next lines start with the values.

fold difference in affinity vs original: 0.91 fold
B2: C5A (XPA23) VL T52H (antibody, V domains shown)
VH: B1 VH
VL: B1 VL with Y30N, T52H

fold difference in affinity vs original: 0.61 fold
B6: C5A (XPA23) VL T52E (antibody, V domains shown)
VH: B1 VH
VL: B1 VL with Y30N, T52E

fold difference in affinity vs original: 0.78 fold
B13: C5A (XPA23) VL T52S (antibody, V domains shown)
VH: B1 VH
VL: B1 VL with Y30N, T52S

fold difference in affinity vs original: 1.23 fold
B15: C5A (XPA23) VL S53N (antibody, V domains shown)
VH: B1 VH
VL: B1 VL with Y30N, S53N

fold difference in affinity vs original: 1.09 fold
B18: C5A (XPA23) VL S53Q (antibody, V domains shown)
VH: B1 VH
VL: B1 VL with Y30N, S53Q

fold difference in affinity vs original: 3.37 fold
B21: C5A (XPA23) VL T52R (antibody, V domains shown)
VH: B1 VH
VL: B1 VL with Y30N, T52R

fold difference in affinity vs original: 0.72 fold
B23: C5A (XPA23) VL T52D (antibody, V domains shown)
VH: B1 VH
VL: B1 VL with Y30N, T52D

fold difference in affinity vs original: 1.23 fold
B25: C5A (XPA23) VL S53Y (antibody, V domains shown)
VH: B1 VH
VL: B1 VL with Y30N, S53Y

fold difference in affinity vs original: 3.23 fold
B31: C5A (XPA23) VL T52K (antibody, V domains shown)
VH: B1 VH
VL: B1 VL with Y30N, T52K

fold difference in affinity vs original: 0.95 fold
B33: C5A (XPA23) VL S53T (antibody, V domains shown)
VH: B1 VH
VL: B1 VL with Y30N, S53T

fold difference in affinity vs original: 1.01 fold
B36: C5A (XPA23) VL T52Y (antibody, V domains shown)
VH: B1 VH
VL: B1 VL with Y30N, T52Y

fold difference in affinity vs original: 3.29 fold
B40: C5A (XPA23) VL S53R (antibody, V domains shown)
VH: B1 VH
VL: B1 VL with Y30N, S53R

fold difference in affinity vs original: 0.83 fold
B44: C5A (XPA23) VL T52Q (antibody, V domains shown)
VH: B1 VH
VL: B1 VL with Y30N, T52Q

fold difference in affinity vs original: 0.83 fold
B46: C5A (XPA23) VL T52N (antibody, V domains shown)
VH: B1 VH
VL: B1 VL with Y30N, T52N
